Laboratory results: the supplement of paper PMC7125110
± gives the standard error. Variants at the floor of the assay were thinned out.

B1: glmS ribozyme (parent)
chain: AUAAAAGCGCCAGAACUACAGAAAUGUAGUUGACGAGGAGGAGGUUUAUCGAAUUUUCGGCGGAUGCCUCCAAA

Columns and labels:
Conditions in all cases: with glucosamine-6-phosphate
[1] = variants of: B1; assay: self-cleavage kobs at 160 uM GlcN6P; higher = faster cleavage; RNA array
Method in brief: (§1)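 Glucosamine-6-phosphate, from 40 μM to 10 mM in HEPES/KCl/Mg(OAc)2 buffer, was flowed over sequenced MiSeq chips carrying barcoded ribozyme variants transcribed in situ by E. coli RNA polymerase. A hybridised Cy3 probe tracked the variants at 37 °C as tiles were imaged over ~14 h. kobs, kcat and KM were obtained by fitting normalised per-tile medians to exponential decays and then applying weighted Michaelis–Menten fits across concentrations.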

[2] = variants of: B1; assay: self-cleavage kobs at 2500 uM GlcN6P; higher = faster cleavage; RNA array
Method in brief: as §1

[3] = variants of: B1; assay: self-cleavage kobs at 640 uM GlcN6P; higher = faster cleavage; RNA array
Method in brief: as §1

[4] = variants of: B1; assay: self-cleavage kobs at 10000 uM GlcN6P; higher = faster cleavage; RNA array
Method in brief: as §1

| Variant | self-cleavage kobs at 160 uM GlcN6P [1] | self-cleavage kobs at 2500 uM GlcN6P [2] | self-cleavage kobs at 640 uM GlcN6P [3] | self-cleavage kobs at 10000 uM GlcN6P [4] |
| --- | --- | --- | --- | --- |
| U31C C58A A64C | < 1e-05 s⁻¹ | < 1e-05 s⁻¹ |  |  |
| A14U A15C A48C U56A C67A | < 1e-05 s⁻¹ |  |  |  |
| A48C G60A C61A | < 1e-05 s⁻¹ |  |  |  |
| A6U A12C A53U | < 1e-05 s⁻¹ | 4.17e-05 ± 1.6e-05 s⁻¹ | 3.14e-05 ± 1.3e-05 s⁻¹ |  |
| A15C G35U C70U | < 1e-05 s⁻¹ |  |  |  |
| U65C G66C | < 1e-05 s⁻¹ |  | < 1e-05 s⁻¹ | < 1e-05 s⁻¹ |
| C34G C50G | 5.61e-05 ± 2.4e-05 s⁻¹ | 9.6e-05 ± 3.6e-05 s⁻¹ | 0.00014 ± 5.7e-05 s⁻¹ |  |
| C11U U56A G66A | 4.3e-05 ± 1.4e-05 s⁻¹ | 0.000197 ± 4.1e-05 s⁻¹ | 8.42e-05 ± 1.7e-05 s⁻¹ |  |
| G7C A53C | < 1e-05 s⁻¹ | < 1e-05 s⁻¹ | < 1e-05 s⁻¹ |  |
| G35C A36U | < 1e-05 s⁻¹ | < 1e-05 s⁻¹ | < 1e-05 s⁻¹ | < 1e-05 s⁻¹ |
| U49A G62A | < 1e-05 s⁻¹ |  | < 1e-05 s⁻¹ |  |
| A39C A48G | < 1e-05 s⁻¹ |  |  | 3.36e-05 ± 1.2e-05 s⁻¹ |
| A12C U56C | 6.31e-05 ± 1.4e-05 s⁻¹ | 0.00111 ± 0.00017 s⁻¹ | 0.000455 ± 8.2e-05 s⁻¹ | 0.00253 ± 0.00077 s⁻¹ |
| G43A U55G | < 1e-05 s⁻¹ | 4.42e-05 ± 1.1e-05 s⁻¹ |  | 5.21e-05 ± 7.9e-06 s⁻¹ |
| G13A A39G C68A | < 1e-05 s⁻¹ |  |  |  |
| C11U U46G C50G | 5.55e-05 ± 1.9e-05 s⁻¹ |  | 6.4e-05 ± 1.8e-05 s⁻¹ |  |
| C10G C50G C67U | 9.87e-05 ± 2.3e-05 s⁻¹ | 0.000267 ± 5.1e-05 s⁻¹ |  |  |
| C16A G37C G59C | < 1e-05 s⁻¹ |  | < 1e-05 s⁻¹ |  |
| C8U U56C | < 1e-05 s⁻¹ | < 1e-05 s⁻¹ | < 1e-05 s⁻¹ | < 1e-05 s⁻¹ |
| A36U U47A G66U C70G C71U | 4.68e-05 ± 2.2e-05 s⁻¹ | 0.00104 ± 0.00043 s⁻¹ |  |  |
| C34A G38U A53C | < 1e-05 s⁻¹ | < 1e-05 s⁻¹ | < 1e-05 s⁻¹ |  |
| C10G G32U U69G | < 1e-05 s⁻¹ |  |  |  |
| A39C A42C U46C | < 1e-05 s⁻¹ |  |  |  |
| A14C G66A C71U | 0.000171 ± 5.4e-05 s⁻¹ | 0.00114 ± 0.00023 s⁻¹ | 0.000399 ± 9.8e-05 s⁻¹ |  |
| A39G G51U G59U | < 1e-05 s⁻¹ |  | < 1e-05 s⁻¹ | < 1e-05 s⁻¹ |
| A6U G37C C71U | < 1e-05 s⁻¹ |  |  |  |
| G7U G35A G37C U46G U47A C70G | < 1e-05 s⁻¹ | < 1e-05 s⁻¹ | < 1e-05 s⁻¹ |  |
